The target in test [1] is T1, prostate specific membrane antigen (PSMA) on LNCaP cells (human, UniProt Q04609 1-750).
T1 construct: whole, on cells; also called LNCap membrane preparation
Kind of test: ELISA on plates coated with LNCap membrane preparation. Background: ELISA stands for enzyme-linked immunosorbent assay.

The target in test [2] is T1, prostate specific membrane antigen …. Put plainly: ELISA on plates coated with LNCap membrane preparation; purified antibody; reference J415 chimeric antibody.

T1 sequence (Q04609 whole entry): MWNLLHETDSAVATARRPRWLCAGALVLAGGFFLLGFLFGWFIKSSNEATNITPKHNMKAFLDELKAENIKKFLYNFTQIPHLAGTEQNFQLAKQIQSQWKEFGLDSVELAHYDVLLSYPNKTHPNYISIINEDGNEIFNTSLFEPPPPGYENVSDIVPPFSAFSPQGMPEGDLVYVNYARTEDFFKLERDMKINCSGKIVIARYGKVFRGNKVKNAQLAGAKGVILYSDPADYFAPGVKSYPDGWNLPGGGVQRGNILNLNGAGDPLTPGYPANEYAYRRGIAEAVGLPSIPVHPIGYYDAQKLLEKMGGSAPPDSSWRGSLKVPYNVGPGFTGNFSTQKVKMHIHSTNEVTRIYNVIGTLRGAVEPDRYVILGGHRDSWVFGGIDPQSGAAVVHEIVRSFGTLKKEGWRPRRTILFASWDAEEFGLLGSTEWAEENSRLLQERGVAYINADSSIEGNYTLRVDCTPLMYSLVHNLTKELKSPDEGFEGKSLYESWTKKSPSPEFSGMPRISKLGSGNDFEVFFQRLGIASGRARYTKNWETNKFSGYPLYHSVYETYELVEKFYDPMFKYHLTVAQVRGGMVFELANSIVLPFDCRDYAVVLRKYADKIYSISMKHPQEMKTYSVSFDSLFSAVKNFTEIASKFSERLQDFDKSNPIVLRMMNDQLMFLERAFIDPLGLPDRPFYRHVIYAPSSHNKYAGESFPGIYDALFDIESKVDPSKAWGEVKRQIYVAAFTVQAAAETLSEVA

B1: deimmunized J415 heavy chain version 4 combined with deimmunized J415 light chain version 5 (antibody, V domains shown)
VH: EVKLEESGGGLVQPGGSMKISCVASGFTFSNYWMNWVRQSPEKGLEWVAEIRSQSNNFATHYAESVKGRVIISRDDSKSSVYLQMNSLRAEDTAVYYCTRRWNNFWGQGTTVTVSS
VL: NIVMTQFPKSMSASAGERMTLTCKASENVGTYVSWYQQKPTQSPKMLIYGASNRFTGVPDRFSGSGSGTDFILTISSVQAEDLVDYYCGQSYTFPYTFGGGTKLEMK
notes: also called DIVH4/DIVK5; J415DIVH4/J415DIVK5
For the molecule B1, the binding result in test [1] was “binds”.

B2: deimmunized J415 heavy chain version 1 combined with DIVK5 (antibody, V domains shown)
VH: EVKLEESGGGLVQPGGSMKISCKASGFTFSNYWMNWVRQTPEKGLEWVALIRSQSNNFATHYAESVKGRVIISRDDSKSSVYLQMNSLRAEDTAVYYCTRRWNNFWGQGTTVTVSS
VL: NIVMTQFPKSMSASAGERMTLTCKASENVGTYVSWYQQKPTQSPKMLIYGASNRFTGVPDRFSGSGSGTDFILTISSVQAEDLVDYYCGQSYTFPYTFGGGTKLEMK
notes: also called J415DIVH1/J415DIVK5
Turning to B2, the “fold less binding than the chimeric antibody” value in test [2] was found to be 2 fold.

B3: deimmunized J415 heavy chain version 2 combined with DIVK5 (antibody, V domains shown)
VH: EVKLEESGGGLVQPGGSMKISCVASGFTFSNYWMNWVRQTPEKGLEWVALIRSQSNNFATHYAESVKGRVIISRDDSKSSVYLQMNSLRAEDTAVYYCTRRWNNFWGQGTTVTVSS
VL: NIVMTQFPKSMSASAGERMTLTCKASENVGTYVSWYQQKPTQSPKMLIYGASNRFTGVPDRFSGSGSGTDFILTISSVQAEDLVDYYCGQSYTFPYTFGGGTKLEMK
notes: also called J415DIVH2/J415DIVK5
As to B3, the “fold less binding than the chimeric antibody” value in test [2] worked out at 2 fold.

B4: J415 chimeric antibody (antibody, V domains shown)
VH: EVKLEESGGGLVQPGGSMKLSCVASGFTFSNYWMNWVRQSPEKGLEWVAEIRSQSNNFATHYAESVKGRVIISRDDSKSSVYLQMNNLRAEDTGIYYCTRRWNNFWGQGTTLTVSS
VL: NIVMTQFPKSMSISVGERVTLTCKASENVGTYVSWYQQKPEQSPKMLIYGASNRFTGVPDRFTGSGSATDFILTISSVQTEDLVDYYCGQSYTFPYTFGGGTKLEMK
notes: Expression vectors carry human IgG1 and kappa; also called the chimeric
As to B4, the binding result in test [1] was “binds”.

These data come from patent publication US20040120958A1 (CORNELL RESEARCH FOUNDATION, published 2004).
